Article PMC9482650, “Quantitative fragmentomics allow affinity mapping of interactomes” (Nature Communications, 2022)

Key:
Test in all cases: holdup assay
Design in all cases: key: below the threshold = too weak to quantify, mostly under pKd 3.1 to 4
GRID2IP_2, A4D2P6 = molecular target: GRID2IP_2, A4D2P6
DLG4_1, P78352 = molecular target: DLG4_1, P78352
MAST2, Q6P0Q8 = molecular target: MAST2, Q6P0Q8
APBA1_1, Q02410 = molecular target: T1, APBA1_1, Q02410
T1 sequence (Q02410 651-752, limits assumed, looked up): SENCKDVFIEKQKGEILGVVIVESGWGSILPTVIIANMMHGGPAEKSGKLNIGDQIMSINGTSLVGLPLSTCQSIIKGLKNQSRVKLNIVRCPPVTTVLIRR

IL16_1, Q14005 = molecular target: IL16_1, Q14005
NHERF4_2, Q86UT5 = molecular target: NHERF4_2, Q86UT5
PDZD2_2, O15018 = molecular target: T2, PDZD2_2, O15018
T2 sequence (O15018 329-429, limits assumed, looked up): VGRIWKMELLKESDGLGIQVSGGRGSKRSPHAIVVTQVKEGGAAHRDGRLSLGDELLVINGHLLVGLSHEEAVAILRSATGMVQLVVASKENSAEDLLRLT

NHERF2_2, Q15599 = molecular target: NHERF2_2, Q15599
ARHGAP21, Q5T5U3 = molecular target: T3, ARHGAP21, Q5T5U3
T3 sequence (Q5T5U3 45-169, limits assumed, looked up): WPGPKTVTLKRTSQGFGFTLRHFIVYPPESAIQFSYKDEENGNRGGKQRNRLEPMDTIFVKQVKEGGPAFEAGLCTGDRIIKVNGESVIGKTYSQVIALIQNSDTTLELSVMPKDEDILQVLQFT

MAGI1_1, Q96QZ7 = molecular target: MAGI1_1, Q96QZ7
Inadl_4, Q8NI35 = molecular target: Inadl_4, Q8NI35
TX1BP3, O14907 = molecular target: T4, TX1BP3, O14907
T4 sequence (O14907 10-122, limits assumed, looked up): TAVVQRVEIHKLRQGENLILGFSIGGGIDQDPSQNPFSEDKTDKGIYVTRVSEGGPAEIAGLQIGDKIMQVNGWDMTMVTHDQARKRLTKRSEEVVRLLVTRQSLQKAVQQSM

GRIP2_5, Q9C0E4 = molecular target: GRIP2_5, Q9C0E4
PARD3_3, Q8TEW0 = molecular target: PARD3_3, Q8TEW0
NOS1, P29475 = molecular target: NOS1, P29475
DLG3_3, Q92796 = molecular target: T5, DLG3_3, Q92796
T5 sequence (Q92796 374-475, limits assumed, looked up): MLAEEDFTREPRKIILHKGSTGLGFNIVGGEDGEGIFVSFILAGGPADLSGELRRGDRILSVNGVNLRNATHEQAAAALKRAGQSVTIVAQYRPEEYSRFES

NHERF4_4, Q86UT5 = molecular target: NHERF4_4, Q86UT5
GRIP2_3, Q9C0E4 = molecular target: GRIP2_3, Q9C0E4
PICK1, Q9NRD5 = molecular target: PICK1, Q9NRD5
MPDZ_10, O75970 = molecular target: T6, MPDZ_10, O75970
T6 sequence (O75970 1624-1722, limits assumed, looked up): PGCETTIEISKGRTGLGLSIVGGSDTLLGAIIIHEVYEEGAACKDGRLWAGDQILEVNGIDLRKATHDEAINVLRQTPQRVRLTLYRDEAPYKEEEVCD

MPDZ_5, O75970 = molecular target: T7, MPDZ_5, O75970
T7 sequence (O75970 695-796, limits assumed, looked up): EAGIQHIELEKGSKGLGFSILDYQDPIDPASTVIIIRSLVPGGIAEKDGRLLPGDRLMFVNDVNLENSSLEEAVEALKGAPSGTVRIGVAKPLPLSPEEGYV

MAGI2_3, Q86UL8 = molecular target: MAGI2_3, Q86UL8
APBA1_2, Q02410 = molecular target: T8, APBA1_2, Q02410
T8 sequence (Q02410 742-832, limits assumed, looked up): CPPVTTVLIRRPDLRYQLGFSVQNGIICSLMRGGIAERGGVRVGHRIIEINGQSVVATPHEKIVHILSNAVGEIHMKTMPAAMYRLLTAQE

LDB3, O75112 = molecular target: LDB3, O75112
MPP7, Q5T2T1 = molecular target: T9, MPP7, Q5T2T1
T9 sequence (Q5T2T1 134-230, limits assumed, looked up): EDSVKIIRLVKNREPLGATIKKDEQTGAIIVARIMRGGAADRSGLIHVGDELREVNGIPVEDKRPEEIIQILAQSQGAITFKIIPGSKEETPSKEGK

SCRIB_2, Q14160 = molecular target: SCRIB_2, Q14160
NHERF3_1, Q5T2W1 = molecular target: T10, NHERF3_1, Q5T2W1
T10 sequence (Q5T2W1 4-100, limits assumed, looked up): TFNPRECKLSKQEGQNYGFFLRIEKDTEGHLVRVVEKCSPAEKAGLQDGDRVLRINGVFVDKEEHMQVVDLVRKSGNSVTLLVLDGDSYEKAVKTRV

[1] = plain residues with an end cap or a label only (N-terminal biotin on a linker: ado-ado)
[2] = plain residues with an end cap or a label only (N-terminal biotin on a linker: ahx)

Measured: pKd

Chain of GRID2IP_2, A4D2P6 (A4D2P6 272-370): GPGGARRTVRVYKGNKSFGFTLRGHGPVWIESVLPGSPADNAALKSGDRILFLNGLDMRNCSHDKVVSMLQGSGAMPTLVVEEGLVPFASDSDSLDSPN
Chain of NOS1, P29475 (P29475 9-101): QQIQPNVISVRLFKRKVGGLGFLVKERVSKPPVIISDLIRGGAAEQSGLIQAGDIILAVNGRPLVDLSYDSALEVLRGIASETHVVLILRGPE
Chain of MAGI2_3, Q86UL8 (Q86UL8 600-682): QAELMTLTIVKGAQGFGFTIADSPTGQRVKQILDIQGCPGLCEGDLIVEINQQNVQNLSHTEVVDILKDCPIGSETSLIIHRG
Chain of NHERF4_4, Q86UT5 (Q86UT5 464-550): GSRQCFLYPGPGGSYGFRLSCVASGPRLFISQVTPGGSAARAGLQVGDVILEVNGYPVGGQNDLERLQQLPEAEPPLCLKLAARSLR
Chain of IL16_1, Q14005 (Q14005 210-306): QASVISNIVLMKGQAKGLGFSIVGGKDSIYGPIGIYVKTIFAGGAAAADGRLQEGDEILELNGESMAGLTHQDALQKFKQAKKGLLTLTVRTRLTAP
Chain of NHERF2_2, Q15599 (Q15599 142-238): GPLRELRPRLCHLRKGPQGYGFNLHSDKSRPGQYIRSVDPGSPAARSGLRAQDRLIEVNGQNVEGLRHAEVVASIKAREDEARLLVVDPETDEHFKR
Chain of MAGI1_1, Q96QZ7 (Q96QZ7 1-106): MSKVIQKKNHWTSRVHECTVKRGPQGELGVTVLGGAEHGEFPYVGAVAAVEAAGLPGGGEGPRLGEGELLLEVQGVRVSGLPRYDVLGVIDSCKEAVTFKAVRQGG
Chain of MAST2, Q6P0Q8 (Q6P0Q8 1099-1202): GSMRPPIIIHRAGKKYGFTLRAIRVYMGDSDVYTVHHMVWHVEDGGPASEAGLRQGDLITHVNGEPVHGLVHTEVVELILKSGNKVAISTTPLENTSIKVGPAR
Chain of Inadl_4, Q8NI35 (Q8NI35 547-651): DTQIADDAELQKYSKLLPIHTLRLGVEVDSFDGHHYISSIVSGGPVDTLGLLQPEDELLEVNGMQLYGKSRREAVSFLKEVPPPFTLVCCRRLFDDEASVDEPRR
Chain of SCRIB_2, Q14160 (Q14160 857-960): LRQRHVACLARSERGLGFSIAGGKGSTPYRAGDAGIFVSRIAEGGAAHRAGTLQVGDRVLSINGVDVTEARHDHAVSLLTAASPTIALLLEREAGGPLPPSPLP
Chain of PARD3_3, Q8TEW0 (Q8TEW0 582-685): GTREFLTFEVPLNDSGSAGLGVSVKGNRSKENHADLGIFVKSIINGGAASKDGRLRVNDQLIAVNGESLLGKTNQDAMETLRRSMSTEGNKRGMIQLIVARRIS
Chain of DLG4_1, P78352 (P78352 62-152): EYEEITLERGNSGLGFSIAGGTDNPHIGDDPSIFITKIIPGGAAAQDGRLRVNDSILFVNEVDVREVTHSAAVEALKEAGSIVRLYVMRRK
Chain of GRIP2_3, Q9C0E4 (Q9C0E4 238-339): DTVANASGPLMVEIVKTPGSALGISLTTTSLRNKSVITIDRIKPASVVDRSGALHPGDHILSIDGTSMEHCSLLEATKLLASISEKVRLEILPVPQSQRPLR
Chain of PICK1, Q9NRD5 (Q9NRD5 17-115): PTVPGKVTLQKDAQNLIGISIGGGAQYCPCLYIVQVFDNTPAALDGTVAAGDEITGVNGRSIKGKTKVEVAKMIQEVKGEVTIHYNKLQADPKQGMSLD
Chain of NHERF4_2, Q86UT5 (Q86UT5 220-308): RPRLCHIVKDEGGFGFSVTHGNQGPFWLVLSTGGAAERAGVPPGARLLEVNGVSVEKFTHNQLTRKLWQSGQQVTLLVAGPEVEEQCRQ
Chain of LDB3, O75112 (O75112 1-94): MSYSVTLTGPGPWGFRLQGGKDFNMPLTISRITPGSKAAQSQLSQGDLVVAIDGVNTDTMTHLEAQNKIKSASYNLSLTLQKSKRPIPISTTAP
Chain of GRIP2_5, Q9C0E4 (Q9C0E4 544-642): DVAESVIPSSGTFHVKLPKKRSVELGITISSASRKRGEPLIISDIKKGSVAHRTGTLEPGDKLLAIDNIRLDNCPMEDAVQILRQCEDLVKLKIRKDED

RSSGGDDFWF [KCNV1, Q6PIU1]
below the threshold: GRID2IP_2, A4D2P6; [1] | DLG4_1, P78352; [1] | APBA1_1, Q02410; [1] | IL16_1, Q14005; [1] | NHERF4_2, Q86UT5; [1] | MAGI1_1, Q96QZ7; [1] | Inadl_4, Q8NI35; [1] | TX1BP3, O14907; [1] | GRIP2_5, Q9C0E4; [1] | NOS1, P29475; [1] | DLG3_3, Q92796; [1] | GRIP2_3, Q9C0E4; [1] | MPDZ_10, O75970; [1] | MPDZ_5, O75970; [1] | MAGI2_3, Q86UL8; [1] | APBA1_2, Q02410; [1] | LDB3, O75112; [1] | SCRIB_2, Q14160; [1]
4.08: NHERF3_1, Q5T2W1; [1]
4.97: PARD3_3, Q8TEW0; [1]
4.43: NHERF4_4, Q86UT5; [1]
4.8: ARHGAP21, Q5T5U3; [1]
4.69: NHERF2_2, Q15599; [1]
4.45: MPP7, Q5T2T1; [1]
4.01: PICK1, Q9NRD5; [1]
4.37: PDZD2_2, O15018; [1]
4.61: MAST2, Q6P0Q8; [1]

TESNLQTSSC [CGN, Q9P2M7]
3.51: ARHGAP21, Q5T5U3; [2]
4.1: PDZD2_2, O15018; [2]
3.9: MPDZ_10, O75970; [2]
below the threshold: DLG4_1, P78352; [2] | MAST2, Q6P0Q8; [2] | APBA1_1, Q02410; [2] | IL16_1, Q14005; [2] | NHERF4_2, Q86UT5; [2] | NHERF2_2, Q15599; [2] | MAGI1_1, Q96QZ7; [2] | Inadl_4, Q8NI35; [2] | TX1BP3, O14907; [2] | GRIP2_5, Q9C0E4; [2] | PARD3_3, Q8TEW0; [2] | NOS1, P29475; [2] | DLG3_3, Q92796; [2] | NHERF4_4, Q86UT5; [2] | GRIP2_3, Q9C0E4; [2] | PICK1, Q9NRD5; [2] | MPDZ_5, O75970; [2] | MAGI2_3, Q86UL8; [2] | APBA1_2, Q02410; [2] | LDB3, O75112; [2] | MPP7, Q5T2T1; [2] | SCRIB_2, Q14160; [2] | NHERF3_1, Q5T2W1; [2]
3.8: GRID2IP_2, A4D2P6; [2]

APSRKLNTEI [TIAM1, Q13009]
below the threshold: GRID2IP_2, A4D2P6; [2] | DLG4_1, P78352; [2] | MAST2, Q6P0Q8; [2] | APBA1_1, Q02410; [2] | IL16_1, Q14005; [2] | NHERF4_2, Q86UT5; [2] | PDZD2_2, O15018; [2] | NHERF2_2, Q15599; [2] | ARHGAP21, Q5T5U3; [2] | MAGI1_1, Q96QZ7; [2] | Inadl_4, Q8NI35; [2] | TX1BP3, O14907; [2] | GRIP2_5, Q9C0E4; [2] | PARD3_3, Q8TEW0; [2] | NOS1, P29475; [2] | DLG3_3, Q92796; [2] | NHERF4_4, Q86UT5; [2] | GRIP2_3, Q9C0E4; [2] | PICK1, Q9NRD5; [2] | MPDZ_5, O75970; [2] | MAGI2_3, Q86UL8; [2] | APBA1_2, Q02410; [2] | LDB3, O75112; [2] | MPP7, Q5T2T1; [2] | SCRIB_2, Q14160; [2] | NHERF3_1, Q5T2W1; [2]
3.75: MPDZ_10, O75970; [2]

EPQYQPGENL [SRC, P12931]
3.6: PARD3_3, Q8TEW0; [1]
3.59: APBA1_2, Q02410; [1]
3.77: NHERF2_2, Q15599; [1]
below the threshold: GRID2IP_2, A4D2P6; [1] | DLG4_1, P78352; [1] | MAST2, Q6P0Q8; [1] | APBA1_1, Q02410; [1] | IL16_1, Q14005; [1] | NHERF4_2, Q86UT5; [1] | PDZD2_2, O15018; [1] | MAGI1_1, Q96QZ7; [1] | Inadl_4, Q8NI35; [1] | TX1BP3, O14907; [1] | GRIP2_5, Q9C0E4; [1] | NOS1, P29475; [1] | DLG3_3, Q92796; [1] | NHERF4_4, Q86UT5; [1] | GRIP2_3, Q9C0E4; [1] | PICK1, Q9NRD5; [1] | MPDZ_10, O75970; [1] | MPDZ_5, O75970; [1] | MAGI2_3, Q86UL8; [1] | LDB3, O75112; [1] | MPP7, Q5T2T1; [1] | SCRIB_2, Q14160; [1]
4: ARHGAP21, Q5T5U3; [1]
3.82: NHERF3_1, Q5T2W1; [1]

DGVNEKVSCV [HTR2A, P28223]
3.69: DLG4_1, P78352; [1] | NOS1, P29475; [1]
4.72: IL16_1, Q14005; [1] | MAGI2_3, Q86UL8; [1]
3.61: TX1BP3, O14907; [1]
3.64: SCRIB_2, Q14160; [1]
4.54: GRID2IP_2, A4D2P6; [1]
below the threshold: APBA1_1, Q02410; [1] | NHERF4_2, Q86UT5; [1] | NHERF2_2, Q15599; [1] | ARHGAP21, Q5T5U3; [1] | MAGI1_1, Q96QZ7; [1] | Inadl_4, Q8NI35; [1] | GRIP2_5, Q9C0E4; [1] | PARD3_3, Q8TEW0; [1] | DLG3_3, Q92796; [1] | NHERF4_4, Q86UT5; [1] | GRIP2_3, Q9C0E4; [1] | PICK1, Q9NRD5; [1] | MPDZ_5, O75970; [1] | LDB3, O75112; [1] | MPP7, Q5T2T1; [1] | NHERF3_1, Q5T2W1; [1]
4: APBA1_2, Q02410; [1]
4.52: MAST2, Q6P0Q8; [1]
6: PDZD2_2, O15018; [1]
4.19: MPDZ_10, O75970; [1]
